Data reported in article PMC9834408 (Nature Communications, 2023).
Where no end group is shown, it is not given here. [ ]: non-standard residue; d: D form. FAM = FAM fluorescent label on the peptide N-terminus (the text does not expand the abbreviation); pS = N[C@@H](COP(=O)(O)O)C(=O)O

Legend:
[1] = biological target: T1, SHARP SPOC (3496–3664 aa) (human, UniProt Q96T58 3496-3664); experiment: fluorescence polarisation; fluorescence anisotropy; 90 nM labelled peptide (Atto-488 on CTD peptides, FAM on NCoR and FMR1 peptides) titrated with increasing concentrations of SPOC domain; 20 °C; 25 mM Tris-Cl pH 7.4, 25 mM NaCl, 1 mM DTT; three independent dilution series; conditions: both partners purified
T1 construct: SPOC domain of human SHARP (SMRT/HDAC1 associated repressor protein, also known as SPEN), residues 3496-3664; also called SPOC domain of SHARP; SPEN SPOC; not shown: His6, N-terminal, cleaved

[2] = biological target: T2, RBM15 SPOC R834A (human, UniProt Q96T37 775-960, R834A); experiment: as above; conditions: both partners purified
T2 construct: SPOC domain of human RBM15, residues 775-960, with R834A; not shown: His6, N-terminal, cleaved
T2 sequence (looked up): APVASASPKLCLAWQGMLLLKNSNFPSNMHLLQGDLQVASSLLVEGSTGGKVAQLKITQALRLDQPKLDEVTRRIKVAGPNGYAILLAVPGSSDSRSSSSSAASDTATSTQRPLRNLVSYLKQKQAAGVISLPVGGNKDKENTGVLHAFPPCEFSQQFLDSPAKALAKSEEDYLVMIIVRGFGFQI

B1: unphosphorylated NCoR peptide (peptide)
chain: {FAM}-REPAPLLSAQYETLSDSDD
[1]
  Kd: 13.6 ± 1.3 µM

B2: NCoR peptide phosphorylated at S2436 (peptide)
chain: {FAM}-REPAPLLSAQYETL[pS]DSDD
modifications: also: phosphoserine at S2436
[1]
  Kd: 1.75 ± 0.04 µM

B3: WTAP peptide (first 19 N-terminal amino acids) phosphorylated at S14 (peptide, UniProt Q15007 1-19, looked up)
peptide: MTNEEPLPKKVRL[pS]ETDFK
notes: first 19 N-terminal amino acids of WTAP, with the LSETD motif; also called WTAP pS14
[2]
  Kd: 50.4 ± 1.1 µM

B4: 1×S5P CTD diheptapeptide (peptide)
peptide: {Atto‑488}-YSPT[pS]PSYSPTSPS
notes: also called 1×S5P CTD peptide; CTD pS5; source: lyophilized peptide, labeled with Atto-488 NHS ester, purified by reverse-phase HPLC
[1]
  Kd: 23.8 ± 0.8 µM
